Experimental findings from patent publication US20210179728A1 (OSE IMMUNOTHERAPEUTICS, published 2021) are described below.

For one test, the target named is T1, CD28Fc (human, UniProt P10747 19-152, limits assumed).
T1 construct: not shown: Fc; not specified
Nature of the test: ELISA: modified antibody on immobilized SIRPa-His, CD28Fc added and detected with mouse anti-human CD28. From the text: FIG. 24. Ligand binding assay with the different modified anti-SIRPa antibodies by ELISA.
Background: ELISA stands for enzyme-linked immunosorbent assay.

Test [1] deals with T2, recombinant hSIRPa (Sino Biologicals, reference 11612-H08H) (human, UniProt P78324 31-370).
T2 construct: also called SIRPa-His; human SIRPa-His; not shown: His tag (histidine tail)
T2 sequence (P78324 31-370 limits assumed): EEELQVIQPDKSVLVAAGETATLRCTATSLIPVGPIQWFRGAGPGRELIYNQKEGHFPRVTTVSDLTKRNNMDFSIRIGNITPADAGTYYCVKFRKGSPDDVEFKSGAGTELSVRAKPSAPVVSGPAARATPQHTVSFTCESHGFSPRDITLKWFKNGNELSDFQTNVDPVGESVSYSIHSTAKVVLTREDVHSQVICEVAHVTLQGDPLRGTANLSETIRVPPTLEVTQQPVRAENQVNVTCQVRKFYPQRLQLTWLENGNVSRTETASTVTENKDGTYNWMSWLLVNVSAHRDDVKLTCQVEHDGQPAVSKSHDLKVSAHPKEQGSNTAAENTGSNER
In words: ELISA on immobilized SIRPa-His, peroxidase anti-human IgG, DO 450nm [panel ICOSL]. How it is done:
Method: For ELISA assay, recombinant hSIRPa (Sino Biologicals, Beijing, China; reference 11612-H08H) was immobilized on plastic at 0.5 μg/ml in carbonate buffer (pH9.2) and different modified anti-SIRPa antibodies were added to measure binding to SIRPa.

The target of test [2] is T3, recombinant hSIRPg-His (Sino Biologicals, reference 11828-H08H) (human, UniProt Q9P1W8 29-360).
T3 construct: also called human SIRPg-His; not shown: His tag
T3 sequence (Q9P1W8 29-360 limits assumed): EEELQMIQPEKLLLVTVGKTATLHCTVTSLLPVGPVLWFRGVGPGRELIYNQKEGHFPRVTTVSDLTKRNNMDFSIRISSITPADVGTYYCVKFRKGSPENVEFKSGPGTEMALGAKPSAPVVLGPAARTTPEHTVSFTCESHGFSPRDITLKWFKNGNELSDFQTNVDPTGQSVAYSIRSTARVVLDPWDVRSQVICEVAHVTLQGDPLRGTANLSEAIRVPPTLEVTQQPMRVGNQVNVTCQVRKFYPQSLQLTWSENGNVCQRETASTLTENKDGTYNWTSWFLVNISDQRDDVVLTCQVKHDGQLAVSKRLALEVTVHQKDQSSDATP
Nature of the test: Blitz, SIRPg-His on Ni-NTA biosensor. How it is done: (§1) Method: This method was performed with a Blitz (Forte Bio; USA; reference C22-2 No 61010-1). Recombinant hSIRPg-His (Sino Biologicals, Beijing, China; reference 11828-H08H) was immobilized at 10 μg/ml by histidine tail into a Ni-NTA biosensor (Forte Bio; USA; reference 18-0029) for 30 seconds. Then, an anti-SIRPa antibody was associated at 20 μg/mL for 120 seconds. The dissociation of anti-SIRPa antibody was made in kinetics buffer for 120 seconds. Analysis of data was made with the Blitz pro 1.2 software, which calculated association constant (ka) and dissociation constant (kd) and determined the affinity constant KD […].

In test [3] the target is T4, recombinant hSIRPb-His (Antibodies-online, reference ABIN3077231) (human, UniProt Q5TFQ8 30-371).
T4 construct: also called SIRPb-His (Blitz); not shown: His tag
T4 sequence (Q5TFQ8 30-371): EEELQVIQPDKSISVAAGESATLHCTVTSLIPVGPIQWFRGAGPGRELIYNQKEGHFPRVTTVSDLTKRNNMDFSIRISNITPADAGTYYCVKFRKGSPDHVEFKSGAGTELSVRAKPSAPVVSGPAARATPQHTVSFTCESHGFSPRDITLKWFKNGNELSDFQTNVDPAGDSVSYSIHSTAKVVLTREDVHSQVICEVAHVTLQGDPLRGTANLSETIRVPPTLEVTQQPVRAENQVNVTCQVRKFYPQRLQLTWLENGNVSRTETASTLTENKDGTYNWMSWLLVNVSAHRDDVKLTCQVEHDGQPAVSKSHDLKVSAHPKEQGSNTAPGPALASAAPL
In words: BLI (Blitz); SIRPb-His on Ni-NTA biosensor, antibody at 20 ug/ml [B, table A].

The target in test [4] is T3, recombinant hSIRPg-His (Sino …). In words: BLI (Blitz); SIRPg-His on Ni-NTA biosensor, antibody at 10 ug/ml or 20 ug/ml (Example 9) [B, table A]. The procedure:
FIG. 8. (A) Affinity analysis by Blitz of anti-SIRP antibodies on human SIRPg recombinant protein. SIRPg-His recombinant protein was immobilized onto a NINTA biosensor and the indicated antibodies were added at 10 μg/ml. […] (B) Binding analysis by ELISA assay of anti-SIRP antibodies on SIRPg (human SIRPg-His coating and anti-human kappa detection).
as §1

In test [5] the target is T2, recombinant hSIRPa (Sino Biologicals, …). In words: SPR (Biacore); SIRPa-His immobilized on CM5 chip, antibody injected. Summed up: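 His-tagged recombinant human SIRPa was coupled to a CM5 chip at 5 μg/ml (500 RU). Anti-SIRP antibodies were injected at several concentrations at 40 μl/min on a BIAcore 3000.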
On the technique in general: In SPR one partner is held on a chip, and binding of the other changes the refractive index at the surface.

Test [6] has the same target. Nature of the test: competition ELISA on immobilized SIRPa-His; competitor biotinylated CD47-Fc at 6 ug/ml, streptavidin-peroxidase [second experiment table]. The procedure: (§2) Method: For competitive ELISA assay, recombinant hSIRPa (Sino Biologicals, Beijing, China; reference 11612-H08H) was immobilized on plastic at 0.5 μg/ml in carbonate buffer (pH9.2).
The target is the same in test [7]. Nature of the test: ELISA on immobilized hSIRPa-His, anti-human IgG detection, first experiment; first experiment. The procedure: Method: The binding activity of the anti-SIRPa antibodies was assessed by ELISA.
For test [8] the target is unchanged. In words: BLI (Blitz); SIRPa-His on Ni-NTA biosensor, antibody at 20 ug/ml, no SP-D [B, table A].
The target is the same in test [9]. In words: competition ELISA on immobilized SIRPa; competitor CD47Fc at 0.04 ug/ml, anti-human Fc detection. The procedure:
as §2

Test [10] has the same target. In words: BLI (Blitz); SIRPa-His on Ni-NTA biosensor pre-incubated with SP-D at 100 ug/ml, then antibody at 20 ug/ml [B, table A]. The procedure:
FIG. 6. […] SIRPa-His recombinant protein was immobilized onto a NINTA biosensor at 10 μg/ml and the anti-SIRPa antibody was added at 20 μg/ml (saturating concentration).
In a first step, Sirp-a (His) recombinant protein (Sino Biologicals, Beijing, China; reference 11612-H08H) was immobilized at 10 μg/ml by histidine tail into a Ni-NTA biosensor (Forte Bio; USA; reference 18-0029) for 30 seconds. […] Then, anti-SIRPa antibodies were associated at 20 μg/mL (saturating concentration) for 120 seconds. The dissociation of anti-SIRPa antibody was made in kinetics buffer for 120 seconds. Analysis data was made with the Blitz pro 1.2 software, which calculated association constant (ka) and dissociation constant (kd) and determined the affinity constant KD […].

The target is the same in test [11]. Nature of the test: ELISA on immobilized hSIRPa-His, anti-human IgG detection.

B1: modified anti-SIRPa HEFLB antibody with ECD of ICOSL on the heavy chain (antibody, human IgG4 S228P, kappa)
heavy: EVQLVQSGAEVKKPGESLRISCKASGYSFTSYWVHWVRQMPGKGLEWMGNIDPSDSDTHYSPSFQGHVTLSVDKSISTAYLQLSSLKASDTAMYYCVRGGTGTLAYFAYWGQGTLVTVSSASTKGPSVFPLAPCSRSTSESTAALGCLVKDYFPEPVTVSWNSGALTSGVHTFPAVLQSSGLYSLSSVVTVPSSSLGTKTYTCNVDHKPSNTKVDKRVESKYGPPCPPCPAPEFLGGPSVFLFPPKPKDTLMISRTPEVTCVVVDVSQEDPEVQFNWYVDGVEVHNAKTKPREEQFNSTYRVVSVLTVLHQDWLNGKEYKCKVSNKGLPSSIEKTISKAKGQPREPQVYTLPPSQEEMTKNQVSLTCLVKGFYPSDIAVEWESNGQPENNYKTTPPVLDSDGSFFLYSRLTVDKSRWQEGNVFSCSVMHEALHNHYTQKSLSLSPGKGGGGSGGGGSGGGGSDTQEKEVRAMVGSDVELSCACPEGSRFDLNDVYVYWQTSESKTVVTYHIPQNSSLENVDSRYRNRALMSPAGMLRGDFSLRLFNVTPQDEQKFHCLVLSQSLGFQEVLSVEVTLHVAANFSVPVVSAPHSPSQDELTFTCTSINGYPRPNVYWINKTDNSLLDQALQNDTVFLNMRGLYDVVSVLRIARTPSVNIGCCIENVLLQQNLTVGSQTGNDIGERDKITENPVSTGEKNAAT
light: DVVMTQSPLSLPVTLGQPASISCRSSQSLVHSYGNTYLYWFQQRPGQSPRLLIYRVSNRFSGVPDRFSGSGSGTDFTLKISRVEAEDVGVYYCFQGTHVPYTFGGGTKVEIKRTVAAPSVFIFPPSDEQLKSGTASVVCLLNNFYPREAKVQWKVDNALQSGNSQESVTEQDSKDSTYSLSSTLTLSKADYEKHKVYACEVTHQGLSSPVTKSFNRGEC
notes: as m25, ECD of ICOSL; also called VHprot+VL (ICOSL); HEF-ICOSL + LB
The EC50 (read off the curve) is the midpoint of the concentration-response curve. In the case of B1, in the test with CD28Fc, the binding result was “binds”. The half-maximal effective concentration (EC50 (read off the curve)) in test [1] was around 8 ng/mL.

B2: HFLB (antibody, human IgG4 S228P, kappa, V domains shown)
VH: EVQLVQSGAEVKKPGESLRISCKASGYSFTSYWVHWVRQMPGKGLEWMGNIDPSDSDTHYSPSFQGHVTLSVDKSISTAYLQLSSLKASDTAMYYCVRGGTGTMAYFAYWGQGTLVTVSS
VL: DVVMTQSPLSLPVTLGQPASISCRSSQSLVHSYGNTYLYWFQQRPGQSPRLLIYRVSNRFSGVPDRFSGSGSGTDFTLKISRVEAEDVGVYYCFQGTHVPYTFGGGTKVEIKR
notes: humanized 18D5 variant
In general, Kd refers to a measure of binding affinity in units of concentration. Usually koff stands for the rate constant with which the complex falls apart. What is called kon is the second-order rate constant of association. Broadly, the IC50 is the concentration that inhibits the measured activity by half. A word on the EC50: it is the concentration at which the effect is half-maximal. For B2, the values for the equilibrium dissociation constant (Kd) in test [2], in test [3] and in test [5] were 104 nM, 26 nM and 0.315 nM, respectively. Further, the koff in test [3] worked out at 0.00174 s⁻¹; in test [4] it was 0.0123 s⁻¹; in test [5], 0.000249 s⁻¹. For the same molecule, the on-rate (kon) in test [3] was found to be 66900 M⁻¹ s⁻¹; in test [4], 119000 M⁻¹ s⁻¹; in test [5] it was 791000 M⁻¹ s⁻¹. For the same molecule, the IC50 in test [6] was found to be 0.183 µg/mL. In addition, the concentration giving a half-maximal response (EC50) in test [7] worked out at 4 ng/mL.

B3: mouse antibody 18D5 (antibody, mouse IgG2b, kappa)
heavy: QVQLQQPGAELVRPGSSVKLSCKASGYTFTSYWVHWVKQRPIQGLEWIGNIDPSDSDTHYNQKFKDKASLTVDKSSSTAYMQLSSLTFEDSAVYYCVRGGTGTMAWFAYWGQGTLVTVSAAKTTPPSVYPLAPGCGDTTGSSVTLGCLVKGYFPESVTVTWNSGSLSSSVHTFPALLQSGLYTMSSSVTVPSSTWPSQTVTCSVAHPASSTTVDKKLEPSGPISTINPCPPCKECHKCPAPNLEGGPSVFIFPPNIKDVLMISLTPKVTCVVVDVSEDDPDVQISWFVNNVEVHTAQTQTHREDYNSTIRVVSTLPIQHQDWMSGKEFKCKVNNKDLPSPIERTISKIKGLVRAPQVYILPPPAEQLSRKDVSLTCLVVGFNPGDISVEWTSNGHTEENYKDTAPVLDSDGSYFIYSKLNMKTSKWEKTDSFSCNVRHEGLKNYYLKKTISRSPGK
light: DVVMTQTPLSLPVSLGDQASISCRSSQSLVHSYGNTYLYWYLQKPGQSPKLLIYRVSNRFSGVPDRFSGSGSGTDFTLKISRVEAEDLGVYFCFQGTHVPYTFGSGTKLEIKRADAAPTVSIFPPSSEQLTSGGASVVCFLNNFYPKDINVKWKIDGSERQNGVLNSWTDQDSKDSTYSMSSTLTLTKDEYERHNSYTCEATHKTSTSPIVKSFNRNEC
notes: mouse monoclonal anti-human SIRPa antibody; also called m18D5; m18D5 clone
B3: the figures for the Kd in test [8], in [5] and in [10] were 111 nM, 0.193 nM and 28.6 nM, respectively. For the same molecule, the off-rate (koff) in [8] is 0.00176 s⁻¹; in test [5], 1.2e-05 s⁻¹; in [10] it was 0.0109 s⁻¹. The kon was determined as 15800 M⁻¹ s⁻¹ in test [8], 62300 M⁻¹ s⁻¹ in [5] and 380000 M⁻¹ s⁻¹ in test [10]. In test [9], the “IC50 (read off the curve)” value is around 500 ng/mL.

B4: Kwar23 (antibody, V domains shown)
VH: EVQLQQSGAELVKPGASVKLSCTASGFNIKDYYIHWVQQRTEQGLEWIGRIDPEDGETKYAPKFQDKATITADTSSNTAYLHLSSLTSEDTAVYYCARWGAYWGQGTLVTVSS
VL: QIVLTQSPAIMSASPGEKVTLTCSASSSVSSSYLYWYQQKPGSSPKLWIYSTSNLASGVPARFSGSGSGTSYSLTISSMEAEDAASYFCHQWSSYPRTFGAGTKLELK
As to B4, in test [3], the dissociation constant Kd was determined as 2.77 nM, the koff is 0.000794 s⁻¹ and the kon stood at 286000 M⁻¹ s⁻¹. For the same molecule, the EC50 in test [11] came to 3.3 ng/mL. Further, in test [4], the Kd amounted to 2.14 nM, the koff was 0.000765 s⁻¹ and the kon came to 357000 M⁻¹ s⁻¹. Besides, in test [5], the dissociation constant Kd was found to be 0.367 nM, the koff is 8.95e-05 s⁻¹ and the kon was determined as 244000 M⁻¹ s⁻¹.
